Measured values taken from US20240166756A1 (KAOHSIUNG MEDICAL UNIVERSITY, published 2024).

T1: CXCR2 antigen peptide (NICR2 peptide) (human, not fully specified)
T1 construct: The immunogen was this peptide conjugated with ovalbumin at its C-terminus ('-C-Ovalbumin')
T1 peptide: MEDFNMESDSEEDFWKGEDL


Columns and labels:
[1] = molecular target: human C-X-C chemokine receptor 2 (CXCR2) (human) (UniProt P25025); experiment: flow cytometry, Alexa Fluor-488-conjugated control IgG1 on fixed HMC-1 cells (80 µg/ml per paragraph 49)
[2] = molecular target: human C-X-C chemokine receptor 2 (CXCR2) (human) (UniProt P25025); experiment: flow cytometry, Alexa Fluor-488-conjugated control IgG1 on fixed MiaPaCa II cells (80 µg/ml per paragraph 49)
[3] = molecular target: human C-X-C chemokine receptor 2 (CXCR2) (human) (UniProt P25025); experiment: flow cytometry, Alexa Fluor-488-conjugated control IgG1 on fixed Panc-1 cells (80 µg/ml per paragraph 49)
[4] = molecular target: T1, CXCR2 antigen peptide (NICR2 peptide); experiment: SPR (Biacore), antibody flowed over the NICR2 peptide, Langmuir 1:1 fit
From the text: Equilibrium affinity and rate constants derived from a Langmuir 1:1 binding kinetic analysis. The interactions between the humanized anti-CXCR2 mAb and the CXCR2 antigen peptide (NICR2 peptide) were detected by using SPR. The humanized anti-CXCR2 mAb flowed through the CXCR2 antigen peptide (NICR2 peptide) at the indicated concentrations. Data were corrected for nonspecific background binding. All data are representative of three independent experiments. […] Data shown is representative of 3 independent experiments.
The binding affinity of the humanized anti-CXCR2 monoclonal antibody (NICR2-5) was further investigated by surface plasmon resonance (SPR) Biacore technique. […] The binding of the humanized anti-CXCR2 mAb (NICR2-5) to cell surface receptor was analyzed by flow cytometry. Control IgG1 or humanized anti-CXCR2 mAb (NICR2-5) were conjugated with Alexa Fluor-488 fluorescent dye. Cancer cells were fixed with 3.5% formaldehyde for 15 min at room temperature. Fixed cells were incubated with fluorescent dye-conjugated IgG1 (80 μg/ml), or different concentrations of humanized anti-CXCR2 mAb (NICR2-5) (0, 40, 80 μg/ml) at 4° ° C. for 1 h. Cells were washed with phosphate-buffered saline (PBS) three times and subjected to flow cytometric analysis by using Attune NxT Flow Cytometer.

human C-X-C chemokine receptor 2 (CXCR2) (human), sequence (P25025 whole entry): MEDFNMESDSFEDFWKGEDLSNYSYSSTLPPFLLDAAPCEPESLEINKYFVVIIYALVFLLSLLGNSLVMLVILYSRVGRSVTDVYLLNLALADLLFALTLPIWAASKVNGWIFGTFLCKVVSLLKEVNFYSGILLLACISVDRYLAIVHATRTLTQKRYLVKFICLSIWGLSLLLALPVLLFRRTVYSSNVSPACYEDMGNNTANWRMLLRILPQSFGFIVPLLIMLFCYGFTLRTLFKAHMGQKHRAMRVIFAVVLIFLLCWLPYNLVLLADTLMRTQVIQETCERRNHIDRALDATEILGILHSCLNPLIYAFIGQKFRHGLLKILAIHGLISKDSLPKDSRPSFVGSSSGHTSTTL

Gated (%) [1] | Gated (%) [2] | Gated (%) [3] | Kd [4] | Molecule
6.6% | 9.3% | 8.2% |  | hIgG (antibody)
 |  |  | 0.3 nM | humanized anti-CXCR2 monoclonal antibody (NICR2-5) (antibody, human IgG1, kappa, V domains shown, CDRs cloned into human IgG1 vector; Conjugated with Alexa Fluor-488 for flow cytometry; also called anti-CXCR2 mAb; humanized anti-CXCR2 mAb (NICR2-5)) VH: QITLKESGPTLVKPTQTLTLTCTFSGFSLRTSGMGVGWIRQPPGKALEWLAHIWWDDDKRYKPDLKSRLTITKDTSKNQVVLTMTNMDPVDTATYYCARLGLRLRTMDYWGQGTLVTVSS VL: DIVMTQTPLSLSVTPGQPASISCRSSLSLVHSNGDTYLHWYLQKPGQSPQLLIYKVSNRFSGVPDRFSGSGSGTDFTLKISRVEAEDVGVYYCSQSTHVPTFGQGTKLEIKR
